From publication PMC9491089

Assays:
[1] = target: recombinant His-tagged Cry7Ab4 toxic core (residues 1-637) (Bacillus thuringiensis); experiment: ELISA; plates coated with Cry7Ab4 toxic core (8 μg/well, 4°C overnight); increasing concentrations of BJSP-1-GST added; detected with anti-GST antibody
[2] = target: recombinant P. xylostella BJSP-1-GST fusion protein (basic juvenile hormone-suppressible protein 1-like) (P. xylostella); experiment: ELISA; plates coated with BJSP-1-GST (8 μg/well, 4°C overnight); increasing concentrations of Cry7Ab4 toxic core added; detected with anti-His antibody

Substance | concentration at which binding was saturated [1] [µg/mL] | concentration at which binding was saturated [2] [µg/mL]
recombinant P. xylostella BJSP-1-GST fusion protein (basic juvenile hormone-suppressible protein 1-like) (natural protein) | 64 | 
recombinant His-tagged Cry7Ab4 toxic core (residues 1-637) (domain or fragment) |  | 16
